Test results from patent EP4471049A1 (Zealand Pharma A/S, priority 2023, dated 2024).
Like-named read-outs stand apart in the source and are kept apart here. *1 amine or outer side, *2 acyl side, *3 side chain or, on linkers, in order; H or OH if unused. Where a SMILES comes first, the peptide text is derived from it. Bridges are numbered along the chain shown (N, C = ends). Where no end group is shown, it is not given here. [ ]: non-standard residue; d: D form. 4‑Aminomethyl‑phenylacetyl = 4-aminomethyl-phenylacetyl unit, its amine closes the lactam, O=C(Cc1ccc(CN[*:1])cc1)[*:2]; 2Nal = N[C@@H](Cc1ccc2ccccc2c1)C(=O)O; AEF = NCCOc1ccc(C[C@H](N)C(=O)O)cc1; X1 = O=C(Cc1ccc(CN[*:1])cc1)[*:2]; 3Pal = N[C@@H](Cc1cccnc1)C(=O)O; αMeL = CC(C)C[C@](C)(N)C(=O)O; β3hL = CC(C)C[C@H](N)CC(=O)O; 3Amb = NCc1cccc(C(=O)O)c1; Dab = NCC[C@H](N)C(=O)O

Legend:
[1] = biological target: T1, human IL-23R (Homo sapiens, UniProt Q5VWK5); assay: biochemical
T1 sequence (Q5VWK5 22-629): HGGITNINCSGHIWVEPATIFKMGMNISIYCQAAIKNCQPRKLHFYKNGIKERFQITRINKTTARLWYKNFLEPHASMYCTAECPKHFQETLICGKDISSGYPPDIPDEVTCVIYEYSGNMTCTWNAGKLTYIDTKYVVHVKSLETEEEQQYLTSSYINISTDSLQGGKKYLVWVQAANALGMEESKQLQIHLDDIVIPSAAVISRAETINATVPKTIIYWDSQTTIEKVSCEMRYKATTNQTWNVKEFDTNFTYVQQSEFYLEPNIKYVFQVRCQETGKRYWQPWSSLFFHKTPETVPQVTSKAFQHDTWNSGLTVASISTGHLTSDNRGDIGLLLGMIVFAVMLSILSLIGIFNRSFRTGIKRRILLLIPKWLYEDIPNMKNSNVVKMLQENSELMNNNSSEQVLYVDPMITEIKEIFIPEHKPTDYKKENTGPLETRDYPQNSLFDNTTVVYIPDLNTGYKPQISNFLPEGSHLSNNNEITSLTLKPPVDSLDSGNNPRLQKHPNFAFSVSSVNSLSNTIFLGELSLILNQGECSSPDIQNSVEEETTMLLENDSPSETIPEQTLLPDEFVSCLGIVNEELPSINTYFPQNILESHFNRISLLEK
In short: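 Membranes from HEK293 cells stably expressing Nluc-tagged human IL-23R were incubated 2 h at room temperature with test compound and a fluorophore-labelled tracer. After substrate addition, loss of BRET (TAMRA over luciferase emission) reported tracer displacement. A 4PL fit gave IC50 values.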

[2] = biological target: IL-23 mediated STAT3 signalling (Homo sapiens, UniProt Q5VWK5); assay: Functional inhibition of IL-23 mediated STAT3 signalling (phospho-STAT3 Tyr705 MSD, DB cells); type: cell-based
Description: The ability of compounds to inhibit IL-23 mediated signalling was determined in the human-derived DB cell line (CRL-2289) (hereafter referred to as DB cells), which endogenously expresses the human IL-23R and human IL-12R β1 subunits. Upon binding of IL-23, the IL-23R forms a heterodimer signalling complex together with IL-12R β1, which through the JAK2/STAT3 pathway promotes phosphorylation of STAT3 to form phospho-STAT3. In the assay, the functional antagonism of IL-23 mediated phospho-STAT3 formation in DB cells by the compound is quantified using reagents capable of measuring the phosphorylation state of Tyr705 of STAT3 in the form of a phospho-STAT3 (Tyr705) MSD (Meso Scale Discovery) kit.
[…]. For compounds tested in this assay, the response was normalized relative to control values to calculate the IC50 and maximal inhibitory response from a concentration response curve of the compound in presence of a fixed concentration of human IL-23.
The assay procedure was as follows. DB cells were maintained in growth medium consisting of RPMI-1640 [Invitrogen 61870-010] supplemented with 10% V/V Foetal Bovine Serum (FBS) [(heat inactivated), Invitrogen 10270-106], and 1% V/V Penicillin-Streptomycin (Pen-Strep) Solution [Invitrogen 15140]. On the day of assay, cells were resuspended in Assay buffer consisting of RPMI-1640 [Invitrogen 61870-010] supplemented with 0.1 % w/V BSA [Sigma-Aldrich A9430] to a density of 7.5x10^6 cells/mL. Compounds to be tested for inhibition of hIL-23 mediated signalling were serially diluted in Assay buffer to 3X the final concentration. A solution of hIL-23 corresponding to 3X the EC80 of hIL-23 (1.7 nM) was also prepared in Assay buffer. To initiate the assay, 20 µL of DB cell suspension (corresponding to 150.000 cells/well) was added to the wells of a 96-well V-bottom Polypropylene plate [Corning 3363] followed by addition of 3X 20 µL of the diluted test compounds to separate wells. Following preincubation of the DB cells with inhibitor for 15 min in a cell incubator (37 °C, 5% CO2), 20 µL of the prepared 3X the EC80 of hIL-23 solution was added to each well and incubated for 90 min in a cell incubator (37 °C, 5% CO2). For some wells buffer only or IL-23 only corresponding to the EC80 was added to obtain readouts needed for normalization. To terminate the assay, the plate was spun at 1000 G for 5 min to pellet cells, the supernatant removed using an 8-channel manual pipette, and then added 50 µL/well Complete Lysis Buffer from the MSD STAT3 kit (Cat# K150SVD, Mesoscale) to the cell pellet. To completely lyse cells to release phospho-STAT3 for detection, the plate was shaken for 10 min at room temperature (500 rpm) sealed with aluminium foil and placed at -80 °C for a minimum of 15 min. Detection of the phospho-STAT3 level in the cell lysate from the individual wells was determined using the MSD STAT3 kit (Cat# K150SVD, Mesoscale) and read on a Meso QuickPlex SQ 120 plate reader (Mesoscale).
For data analysis raw data counts from the Meso QuickPlex SQ 120 plate reader were normalized relative to the response by the EC80 of hIL-23 alone (no compound added) and the buffer level. Compound potency (IC50) and maximal inhibitory response (% inhibition) were estimated by computer-aided curve fitting using a 4-parameter logistic (4PL) non-linear model. […]. Typically compounds with a low IC50 are desired. Typically compounds capable of completely inhibiting the IL23-induced response are desired. […]. Table 3-2: hIL-23 (pSTAT3) antagonist IC50 and % inhibition data

[3] = biological target: T2, human IL-23R endogenously expressed on DB cells (human, UniProt Q5VWK5 24-629); assay: cell-based or functional assay
T2 sequence (looked up): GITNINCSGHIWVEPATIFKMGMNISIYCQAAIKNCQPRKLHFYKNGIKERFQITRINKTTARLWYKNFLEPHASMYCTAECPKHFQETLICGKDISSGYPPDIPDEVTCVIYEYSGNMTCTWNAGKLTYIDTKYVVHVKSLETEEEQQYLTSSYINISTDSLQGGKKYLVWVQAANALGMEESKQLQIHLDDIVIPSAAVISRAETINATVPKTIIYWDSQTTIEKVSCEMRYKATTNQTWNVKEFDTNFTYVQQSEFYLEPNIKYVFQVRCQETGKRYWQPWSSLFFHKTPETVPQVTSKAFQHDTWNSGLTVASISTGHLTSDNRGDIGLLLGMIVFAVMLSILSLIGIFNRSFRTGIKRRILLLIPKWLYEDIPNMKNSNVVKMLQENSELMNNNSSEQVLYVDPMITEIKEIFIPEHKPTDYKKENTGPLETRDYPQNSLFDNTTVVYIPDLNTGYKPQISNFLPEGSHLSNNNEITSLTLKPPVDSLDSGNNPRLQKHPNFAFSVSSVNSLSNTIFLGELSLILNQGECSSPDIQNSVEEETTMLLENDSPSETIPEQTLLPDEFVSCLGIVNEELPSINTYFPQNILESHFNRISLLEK

[4] = biological target: T3, Nluc-IL23R fusion protein (human, UniProt Q5VWK5 22-629); assay: BRET competition vs TAMRA-labelled peptide, Nluc-IL23R membranes
T3 construct: range 22-629; expressed with a secretion signal in HEK293 cells; used as crude membrane preparation; also called hIL-23R; human IL-23R; not shown: Nanoluc protein from the expression plasmid N1371 (Promega), N-terminal of IL-23R
T3 sequence (looked up): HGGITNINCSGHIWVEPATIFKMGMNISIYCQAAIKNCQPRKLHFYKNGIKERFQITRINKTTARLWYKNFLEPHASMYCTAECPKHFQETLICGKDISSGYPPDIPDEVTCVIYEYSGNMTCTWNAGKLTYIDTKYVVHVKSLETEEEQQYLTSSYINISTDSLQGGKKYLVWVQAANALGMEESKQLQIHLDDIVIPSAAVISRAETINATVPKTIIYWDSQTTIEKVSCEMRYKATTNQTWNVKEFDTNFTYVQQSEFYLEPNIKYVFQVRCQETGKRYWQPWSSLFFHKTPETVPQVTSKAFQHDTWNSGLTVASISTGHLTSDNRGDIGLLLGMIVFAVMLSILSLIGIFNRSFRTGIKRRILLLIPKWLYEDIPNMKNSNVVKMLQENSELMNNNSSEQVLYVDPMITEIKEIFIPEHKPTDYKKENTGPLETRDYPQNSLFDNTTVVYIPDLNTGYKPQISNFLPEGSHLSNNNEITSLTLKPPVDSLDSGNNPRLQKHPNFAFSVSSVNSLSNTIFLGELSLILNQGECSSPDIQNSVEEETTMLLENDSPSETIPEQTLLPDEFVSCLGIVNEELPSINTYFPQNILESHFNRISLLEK

[5] = biological target: T3, Nluc-IL23R fusion protein; assay: as above; remark: listed apart in the source
[6] = biological target: T3, Nluc-IL23R fusion protein; assay: Ki from BRET competition (Cheng-Prusoff), Nluc-IL23R membranes

| Molecule | % displacement (hIL-23R binding) [1] [%] | IC50 ([2]; Example 2 (Tables 2-1 to 2-4), read-out: IC50 (pSTAT3)) [nM] | IC50 [1] [nM] | IC50 ([2]; Table 3-2, EC80 of hIL-23, read-out: hIL-23 (pSTAT3) antagonist IC50) [nM] | hIL-23 (pSTAT3) antagonist % inhibition [3] [%] | hIL-23 (pSTAT3) antagonist IC50 [3] [nM] | IC50 [4] [nM] | % displacement (hIL-23R binding) [5] [%] | IC50 [5] [nM] | Ki [6] [nM] |
| --- | --- | --- | --- | --- | --- | --- | --- | --- | --- | --- |
| CC(C)C[C@@H](CC(N)=O)NC(=O)[C@H](Cc1cccnc1)NC(=O)[C@H](CCN)NC(=O)[C@@H]1CCC(=O)NCc2ccc(cc2)CC(=O)N[C@@H](CO)C(=O)N[C@H]2CCC(=O)NCC[C@H](NC(=O)[C@H](CCC(N)=O)NC(=O)[C@H](Cc3c[nH]c4ccccc34)NC2=O)C(=O)N[C@@H](Cc2ccc(OCCN)cc2)C(=O)N[C@@H](Cc2ccc3ccccc3c2)C(=O)N[C@@](C)(CC(C)C)C(=O)N1 [Compound 11, [4-Aminomethyl-phenylacetyl](1c)*SE(2c)WQ[Dab](2c)[Y(2-aminoethoxy)][2-Nal][2-Me-Leu]E(1c)[Dab][3-(3-Pyridyl)-Ala][beta-hLeu]-[NH2]] ([X1]SEWQ[Dab][AEF][2Nal][αMeL]E[Dab][3Pal][β3hL]-NH2; lactam 3-6, N-10) | 103 | 0.68 | – | – | – | – | – | – | – | – |
| CC(C)C[C@]1(C)NC(=O)[C@H](Cc2ccc3ccccc3c2)NC(=O)[C@H](Cc2ccc(OCCN)cc2)NC(=O)[C@@H]2CCNC(=O)CC[C@H](NC(=O)[C@H](CO)NC(=O)Cc3ccc(cc3)CNC(=O)CC[C@@H](C(=O)NCC[C@H](N)C(=O)N[C@@](C)(Cc3cccnc3)C(N)=O)NC1=O)C(=O)N[C@@H](Cc1c[nH]c3ccccc13)C(=O)N[C@@H](CCC(N)=O)C(=O)N2 [Compound 15, [4-Aminomethyl-phenylacetyl](1c)*SE(2c)WQ[Dab](2c)[Y(2-aminoethoxy)][2-Nal][2-Me-Leu]E(1c)[Iso-Dab][2-Me-3-(3-Pyridyl)-Ala]-[NH2]] | 96 | – | 0.45 | 12 | – | – | – | – | – | – |
| Ac-KSCWQCW[2Nal]LER-NH2 (lactam 1-10; bridge 3-6; not fully specified (bridges); printed as [Ac]-K(1c)SC(2a)WQC(2a)W[2-Nal]LE(1c)R-[NH2]) [Ref 18] | – | – | – | – | 97 | 18 | 3.5 | 103 | 3.5 | – |
| [4‑Aminomethyl‑phenylacetyl]SCWQC[AEF][2Nal][αMeL]ER-NH2 (lactam N-10; bridge 3-6; not fully specified (bridges); printed as [4-Aminomethyl-phenylacetyl](1c)*SC(2a)WQC(2a)[Y(2-aminoethoxy)][2-Nal][2-Me-Leu]E(1c)R-[NH2], Y = Y(2-aminoethoxy)) [Ref 52] | – | – | – | – | 103 | 7.8 | 0.058 | 100 | 0.058 | 0.0475 |
| [3Amb]SCWQC[AEF][2Nal][αMeL]E[dR]-NH2 (lactam N-10; bridge 3-6; not fully specified (bridges); printed as [(3-Aminomethyl)benzoyl](1c)*SC(2a)WQC(2a)[Y(2-aminoethoxy)][2-Nal][2-Me-Leu]E(1c)[{d}R]-[NH2], Y = Y(2-aminoethoxy), R = D-Arg) [Ref 41] | – | – | – | – | 99 | 29 | 2.8 | 110 | 2.8 | 2.31 |
| [4‑Aminomethyl‑phenylacetyl]SCWQC[AEF][2Nal][αMeL]ES-NH2 (lactam (positions not given here); bridge 3-6; not fully specified (bridges); printed as [4-Aminomethyl-phenylacetyl](1c)*SC(2a)WQC(2a)[Y(2-aminoethoxy)][2-Nal][2-Me-Leu]E(1c)S-[NH2], Y = Y(2-aminoethoxy)) [Ref 81] | – | – | – | – | 95 | 21 | 0.39 | – | 0.39 | 0.318 |
| H-DESCWQCWWLKR-NH2 (lactam 2-11; bridge 4-7; not fully specified (bridges)) [Ref 4] | – | – | – | – | 87 | 850 | 180 | 100 | 180 | – |
| [3Amb]SCWQCW[2Nal]LER-NH2 (lactam N-10; bridge 3-6; not fully specified (bridges); printed as [(3-Aminomethyl)benzoyl](1c)*SC(2a)WQC(2a)W[2-Nal]LE(1c)R-[NH2]) [Ref 37] | – | – | – | – | 89 | 45 | 12 | 103 | 12 | – |
| Ac-DESCWQCW[2Nal]LKR-NH2 (lactam 2-11; bridge 4-7; not fully specified (bridges); printed as [Ac]-DE(1c)SC(2a)WQC(2a)W[2-Nal]LK(1c)R-[NH2]) [Ref 17] | – | – | – | – | – | 370 | 87 | – | 87 | – |
